According to patent publication US20200207857A1:
Substitutions are numbered along the chain they refer to.

B1: h5C9a (antibody, V domains shown)
VH: EVQLVESGGGLVQPGGSLRLSCAASGYTFTNYGMNWVRQAPGKGLEWVAWINMYTGEPTYADDFKGRFTISRDDSKNTLYLQMNSLRAEDTAVYYCARLYNGNSLDYWGQGTLVTVSS
VL: DIQMTQSPSSLSASVGDRVTITCKSSQSLLNSGNQKSYLTWYQQKPGKAPKLLIYWASTLESGVPSRFSGSGSGTDFTLTISSLQPEDFATYYCQNAYSFPFTFGQGTKVEIK
B2: h5C9ow (antibody, V domains shown)
VH: EVQLVESGGGLVQPGGSLRLSCAVSGYTFSMNWVRQAPGKGLEWVAWINMYTGEPTYADDFKGRFTISRDDSKNTLYLQMNSLRAEDTAVYYCARLTKGNGMDYWGQGTLVTVSS
VL: B1 VL with F77Y
B3: h5C9oo (antibody, V domains shown)
VH: B2 VH with T97V, K98R, M102F
VL: B1 VL with F77Y
B4: h5C9ot (antibody, V domains shown)
VH: B2 VH with L96S, T97S, K98M, M102F
VL: B1 VL with F77Y
B5: h5C9oaa (antibody, V domains shown)
VH: B2 VH with T97V, K98R
VL: B1 VL with F77Y
B6: h5C9oq (antibody, V domains shown)
VH: B2 VH with T97Y, K98R, G101V
VL: B1 VL with F77Y
B7: h5C9ov (antibody, V domains shown)
VH: B2 VH with T97V, M102F
VL: B1 VL with F77Y
B8: h5C9om (antibody, V domains shown)
VH: B2 VH with T97A, K98R, M102F
VL: B1 VL with F77Y
B9: h5C9ox (antibody, V domains shown)
VH: B2 VH with L96A, T97S, K98R
VL: B1 VL with F77Y
B10: h5C9on (antibody, V domains shown)
VH: B2 VH with L96T, T97A, K98P, M102F
VL: B1 VL with F77Y
B11: h5C9oar (antibody, V domains shown)
VH: B2 VH with T56N, T97Y, K98N, G101S, M102L
VL: B1 VL with S32W, E61W, F77Y
B12: h5C9oy (antibody, V domains shown)
VH: B2 VH with L96S, T97S, M102L
VL: B1 VL with F77Y
B13: h5C9or (antibody, V domains shown)
VH: B2 VH with T97N, K98R, G101S
VL: B1 VL with F77Y
B14: h5C9os (antibody, V domains shown)
VH: B2 VH with L96T, T97G, K98T, G101T
VL: B1 VL with F77Y
B15: h5C9ou (antibody, V domains shown)
VH: B2 VH with T97S
VL: B1 VL with F77Y
B16: h5C9oaq (antibody, V domains shown)
VH: B2 VH with P55Q, T97Y, K98N, G101S, M102L
VL: B1 VL with S32W, E61F, F77Y
B17: h5C9oap (antibody, V domains shown)
VH: B2 VH with P55R, T97Y, K98N, G101S, M102L
VL: B1 VL with S32W, E61Q, F77Y
B18: h5C9n (antibody, V domains shown)
VH: B1 VH with A24V
VL: B1 VL
B19: h5C9op (antibody, V domains shown)
VH: B2 VH with L96T, T97S, K98R
VL: B1 VL with F77Y
B20: h5C9ok (antibody, V domains shown)
VH: B2 VH with K98R, G101S, M102L
VL: B1 VL with F77Y
B21: h5C9oz (antibody, V domains shown)
VH: B2 VH with T97S, K98R, G101S, M102L
VL: B1 VL with F77Y
B22: h5C9ol (antibody, V domains shown)
VH: B2 VH with T97G, K98P, G101V, M102F
VL: B1 VL with F77Y
B23: 8C12 (antibody, V domains shown)
VH: EVQLQQSGGGLVQPGGSRKLSCAASGFTFSDYGMAWVRQAPGKGPEWVAFISNLAYSIYSTDTVTGRFTISRENAKNTLYLEMSSLRSDDTAMYYCARGSYYGNSFDYWGQGTTLTVSS
VL: DIVLTQSPAIMSASPGEKVTMTCSASSSVSYMYWYQQKPGSSPKPWIYDTSNLASGFPARFSGSGSGTSYSLIISNMEAEDAATYYCHQRSSYPTFGTGTKLELK
B24: 4G3 (antibody, V domains shown)
VH: KVQLQQSGGGLVQPGGSRKLSCAASGFTFSSFGMHWVRQAPEKGLEWVGYINSGSSTIYYADTVKGRFTISRDNPRNTLFLQMTSLRSEDTAMYYCASGAYYGNAMDYWGQGTSVTVSS
VL: DIVMTQDELSLTVTVGDKVTMNCRSSQSLLNSGNQRNYLTWYQQKPGQPPKLLIYWASTRESGVPDRFTGSGSGTDFTLTISSVQAEDLAVYYCQNVYFYPLTFGTGTKLELK
B25: 5H7 (antibody, V domains shown)
VH: EVKLQESGPSLVKPFQSLSLTCTVTDYSITRGYNWHWIRQFPGNKLEWMGYIHYSGSTNYNPSLKSRISITRDTSKNQFFLQLNSVTTEDTATYYCARDYYGNSFAYWGQGTLVTVFC
VL: DIVMTQDELSLTVTAREKVTMSCKSSQTLFNSGNQKNYLTWYQQKPGQPPKLLIYWASTRESGVPDRFTGSGSGTDFTLTISSVQAEDLAVYYCQNDYIFPYTFGGGTKLEIK
B26: 14D7 (antibody, V domains shown)
VH: VQLQQSGGGLVQPGGSRKLSCAASGFTFSSFGMHWVRQAPEKGLEWVGYINSGSSTIYYADTVKGRFTISRDNPRNTLFLQMTSLRSEDTAMYYCASGAYYGNAMDYWGQGTSVTVSS
VL: MTQDELSLTVTAGEKVTMSCKSSQSLLNSGNQRNYLTWYQQKPGQPPKLLIYWASTRESGVPNRFTGSGSGTDFTLTISSVQAVDLAVYYCQNNYFYPLTFGSGTKLELK
B27: 1D5 (antibody, V domains shown)
VH: VQLQESGAELVRPGTSVKVSCKASRYAFTNYLIEWVKQRPGQGLEWIGMINPGSGGTHYNEKFKVKATLTADKSSSTAYMQLNSLTSDDSAVYFCARGGFGNSFAYWGQGTLVTVSA
VL: DIMMTQTPLSLTVTAGEKVTMSCKSSQSLLNGGNLKNYLTWYQQKPGQPPKLLTYWASTRESGVPARFTGSGSGTDFTLTISSVQAEDLAVYYCQNGYFYPYTFGGGTKLEIK
B28: 7A10 (antibody, V domains shown)
VH: B27 VH with R25G, H58N, V65G, N83S
VL: B27 VL with T7S, G32S, E61D, G97D

Target: Recombinant protein Claudin 18.2
Sequence (chain, as listed by the source limits assumed, form in doubt): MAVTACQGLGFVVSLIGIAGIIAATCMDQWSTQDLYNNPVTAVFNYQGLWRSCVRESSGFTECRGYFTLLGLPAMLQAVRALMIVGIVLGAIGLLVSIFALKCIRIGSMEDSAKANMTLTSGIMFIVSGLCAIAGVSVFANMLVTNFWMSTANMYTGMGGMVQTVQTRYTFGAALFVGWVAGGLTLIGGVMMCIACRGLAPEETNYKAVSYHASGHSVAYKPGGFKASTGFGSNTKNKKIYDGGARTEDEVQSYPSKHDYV
Assay: ELISA on plate-coated recombinant Claudin 18.2, OD450; Kd table under the graph, no unit in the table, unit from the x axis log[antibody] nM

Kd [nM]	Binder
0.278	B1
0.0882	B2
0.122	B3
0.0987	B4
0.0815	B5
0.107	B6
0.107	B7
0.1	B8
0.079	B9
0.131	B10
0.149	B11
0.103	B12
0.0715	B13
0.134	B14
0.0919	B15
0.203	B16
0.189	B17
0.323	B18
0.109	B19
0.108	B20
0.0778	B21
0.119	B22

Target: Recombinant protein Claudin 18.2
Assay: ELISA on plate-coated recombinant Claudin 18.2, OD370; Kd table under the graph, no unit in the table, unit from the x axis log[antibody] nM

Kd [nM]	Binder
0.0782	B23
0.343	B24
0.136	B25
0.1	B26
0.055	B27
0.103	B28
